Experimental data: EP4792821A2 (Beijing Youcare Kechuang Pharmaceutical Technology Co., Ltd., dated 2026)
*1 amine or outer side, *2 acyl side, *3 side chain or, on linkers, in order; H or OH if unused. Side-chain parts run from the residue outwards. The star is where a group is joined. Succinyl(4-O-cholesteryl) = CC(C)CCC[C@@H](C)[C@H]1CC[C@H]2[C@@H]3CC=C4C[C@@H](OC(=O)CCC(=O)*)CC[C@]4(C)[C@H]3CC[C@]12C; Suc = O=C(CCC(=O)[*:2])[*:1]

B1: Compound 29 (peptide)
peptide: LVKKIDEFDASISQVNEKINQSLEEIRKSDELLHNVGSGSGK
modifications: N-terminal acetyl (Ac-); C-terminal lysine side chain carries cholesteryl hemisuccinate, K(Chol); C-terminal amide (-NH2)
B2: Compound 25 (peptide)
peptide: YDELVFDASQVNEKINQSLEKIRKSDELLHNVGSGSGK
modifications: N-terminal acetyl (Ac-); C-terminal lysine side chain carries cholesteryl hemisuccinate, K(Chol); C-terminal amide (-NH2)
B3: Compound 42 (peptide)
peptide: FDASIEEVNRRIEESLRRIEESDRRLEEVNAEAAAKK
modifications: N-terminal acetyl (Ac-); C-terminal lysine side chain carries cholesteryl hemisuccinate, K(Chol); C-terminal amide (-NH2)
B4: Compound 28 (peptide)
peptide: DEFDASISQVNEKINQSLEEIRKSDELLHNEAAAKK
modifications: N-terminal acetyl (Ac-); C-terminal lysine side chain carries cholesteryl hemisuccinate, K(Chol); C-terminal amide (-NH2)
B5: Compound 27 (peptide)
peptide: WDEFDASISQVNEKINQSLEEIRKSDELLHNVNAGLGSGSGK
modifications: N-terminal acetyl (Ac-); C-terminal lysine side chain carries cholesteryl hemisuccinate, K(Chol); C-terminal amide (-NH2)
B6: Compound 41 (peptide)
peptide: WDEFDKKIEEVNKKIEESLKKIEESDKKLEEVNEAAAKK
modifications: N-terminal acetyl (Ac-); C-terminal lysine side chain carries cholesteryl hemisuccinate, K(Chol); C-terminal amide (-NH2)
B7: Compound 38 (peptide)
peptide: WDEFDASISQVNEKINQSLEEIRKSDELLHNVNALEAAAKK
modifications: N-terminal acetyl (Ac-); C-terminal lysine side chain carries cholesteryl hemisuccinate, K(Chol); C-terminal amide (-NH2)
B8: Compound 40 (peptide)
peptide: WDEFDKKIEEVNKKIEESLKKIEESDKKLEEVNAEAAAKK
modifications: N-terminal acetyl (Ac-); C-terminal lysine side chain carries cholesteryl hemisuccinate, K(Chol); C-terminal amide (-NH2)
B9: Compound 26 (peptide)
peptide: FDEEISQVNEKINQSLAFIRKSDELLHNVNAGKSTTEAAAKK
modifications: N-terminal acetyl (Ac-); C-terminal lysine side chain carries cholesteryl hemisuccinate, K(Chol); C-terminal amide (-NH2)
B10: Compound 20 (peptide)
peptide: SDEFDKKIEEVNKKIEESLKKIEESDKKLGSGSGK
modifications: N-terminal acetyl (Ac-); C-terminal lysine side chain carries cholesteryl hemisuccinate, K(Chol); C-terminal amide (-NH2)
B11: Compound 30 (peptide)
peptide: YDELVFDASQVNEKINQSLEKIRKSDELLHNVEAAAKK
modifications: N-terminal acetyl (Ac-); C-terminal lysine side chain carries cholesteryl hemisuccinate, K(Chol); C-terminal amide (-NH2)
B12: Compound 22 (peptide)
peptide: DEFDKKKIEEVNKKIEESLKKIEESDKKLEEVEAAAKK
modifications: N-terminal acetyl (Ac-); C-terminal lysine side chain carries cholesteryl hemisuccinate, K(Chol); C-terminal amide (-NH2)
B13: Compound 43 (peptide)
peptide: WDEFDASIEEVNRRIEESLRRIEESDRRLEEVEAAAKK
modifications: N-terminal acetyl (Ac-); C-terminal lysine side chain carries cholesteryl hemisuccinate, K(Chol); C-terminal amide (-NH2)
B14: Compound 21 (peptide)
peptide: DEFDKKIEEVNKKIEESLKKIEESDKKLEEVEAAAKK
modifications: N-terminal acetyl (Ac-); C-terminal lysine side chain carries cholesteryl hemisuccinate, K(Chol); C-terminal amide (-NH2)

The binders below were run against F protein of hMPV virus strain A2 (human metapneumovirus (hMPV) A2) (assay: cell-based or functional assay).
In the case of B1, the “EC50 (nM), plaque reduction, hMPV A2 on Vero cells” value is reported as 41.6 nM.
B2 was tested, and the “EC50 (nM), plaque reduction, hMPV A2 on Vero cells” value was 86.4 nM.
B3 was tested, and the “EC50 (nM), plaque reduction, hMPV A2 on Vero cells” value was 26.1 nM.
With B4 the “EC50 (nM), plaque reduction, hMPV A2 on Vero cells” value was 58.6 nM.
B5 was tested, and the “EC50 (nM), plaque reduction, hMPV A2 on Vero cells” value was 78.3 nM.
With B6 the “EC50 (nM), plaque reduction, hMPV A2 on Vero cells” value was 11.7 nM.
In the case of B7, the “EC50 (nM), plaque reduction, hMPV A2 on Vero cells” value is reported as 128 nM.
With B8 the “EC50 (nM), plaque reduction, hMPV A2 on Vero cells” value was 13.8 nM.
With B9 the “EC50 (nM), plaque reduction, hMPV A2 on Vero cells” value was 103 nM.
With B10 the “EC50 (nM), plaque reduction, hMPV A2 on Vero cells” value was 7.47 nM.
With B11 the “EC50 (nM), plaque reduction, hMPV A2 on Vero cells” value was 94.8 nM.
In the case of B12, the “EC50 (nM), plaque reduction, hMPV A2 on Vero cells” value is reported as 88.4 nM.
For B13, the “EC50 (nM), plaque reduction, hMPV A2 on Vero cells” value was 16.8 nM.
For B14, the “EC50 (nM), plaque reduction, hMPV A2 on Vero cells” value was 11.2 nM.

What follows are binders tested against F protein of hMPV virus strain B1 (human metapneumovirus (hMPV) B1) (assay: cell-based or functional assay).
With B1 the “EC50 (nM), plaque reduction, hMPV B1 on Vero cells” value was 11.1 nM.
With B2 the “EC50 (nM), plaque reduction, hMPV B1 on Vero cells” value was 38.1 nM.
For B3, the “EC50 (nM), plaque reduction, hMPV B1 on Vero cells” value was 10.1 nM.
With B4 the “EC50 (nM), plaque reduction, hMPV B1 on Vero cells” value was 13.8 nM.
In the case of B5, the “EC50 (nM), plaque reduction, hMPV B1 on Vero cells” value is reported as 10.5 nM.
B6 was tested, and the “EC50 (nM), plaque reduction, hMPV B1 on Vero cells” value was 9.46 nM.
B7 was tested, and the “EC50 (nM), plaque reduction, hMPV B1 on Vero cells” value was 16.6 nM.
For B8, the “EC50 (nM), plaque reduction, hMPV B1 on Vero cells” value was 7.47 nM.
B9 was tested, and the “EC50 (nM), plaque reduction, hMPV B1 on Vero cells” value was 2.85 nM.
In the case of B10, the “EC50 (nM), plaque reduction, hMPV B1 on Vero cells” value is reported as 4.27 nM.
For B11, the “EC50 (nM), plaque reduction, hMPV B1 on Vero cells” value was 51.3 nM.
In the case of B12, the “EC50 (nM), plaque reduction, hMPV B1 on Vero cells” value is reported as 18 nM.
For B13, the “EC50 (nM), plaque reduction, hMPV B1 on Vero cells” value was 8.01 nM.
For B14, the “EC50 (nM), plaque reduction, hMPV B1 on Vero cells” value was 4.92 nM.

Each binder was assayed against F protein of hPIV Type 3 (hPIV3 C243) (human Parainfluenza Virus type 3 (hPIV3 …)) (assay: cell-based or functional assay).
For B1, the “EC50 (nM), plaque reduction, hPIV3 C243 on LLC-MK2 cells” value (“EC50 (nM), plaque reduction, hPIV3 C243” for short) was 26.3 nM.
In the case of B2, the “EC50 (nM), plaque reduction, hPIV3 C243” value is reported as 29.4 nM.
B3 was tested, and the “EC50 (nM), plaque reduction, hPIV3 C243” value was 18.9 nM.
B4 was tested, and the “EC50 (nM), plaque reduction, hPIV3 C243” value was 54.4 nM.
For B5, the “EC50 (nM), plaque reduction, hPIV3 C243” value was 27.2 nM.
For B6, the “EC50 (nM), plaque reduction, hPIV3 C243” value was 71.1 nM.
B7 was tested, and the “EC50 (nM), plaque reduction, hPIV3 C243” value was 26.4 nM.
B8 was tested, and the “EC50 (nM), plaque reduction, hPIV3 C243” value was 22.2 nM.
B9 was tested, and the “EC50 (nM), plaque reduction, hPIV3 C243” value was 1.35 nM.
In the case of B10, the “EC50 (nM), plaque reduction, hPIV3 C243” value is reported as 59.5 nM.
For B11, the “EC50 (nM), plaque reduction, hPIV3 C243” value was 48.2 nM.
With B12 the “EC50 (nM), plaque reduction, hPIV3 C243” value was 65.4 nM.
B13 was tested, and the “EC50 (nM), plaque reduction, hPIV3 C243” value was 16.1 nM.
For B14, the “EC50 (nM), plaque reduction, hPIV3 C243” value was 21.3 nM.

These binders were tested against F protein of RSV A long virus strain (Respiratory Syncytial Virus (RSV) A …, UniProt P12568 26-574) (assay: cell-based or functional assay).
Sequence of F protein of RSV A long virus strain (P12568 26-574): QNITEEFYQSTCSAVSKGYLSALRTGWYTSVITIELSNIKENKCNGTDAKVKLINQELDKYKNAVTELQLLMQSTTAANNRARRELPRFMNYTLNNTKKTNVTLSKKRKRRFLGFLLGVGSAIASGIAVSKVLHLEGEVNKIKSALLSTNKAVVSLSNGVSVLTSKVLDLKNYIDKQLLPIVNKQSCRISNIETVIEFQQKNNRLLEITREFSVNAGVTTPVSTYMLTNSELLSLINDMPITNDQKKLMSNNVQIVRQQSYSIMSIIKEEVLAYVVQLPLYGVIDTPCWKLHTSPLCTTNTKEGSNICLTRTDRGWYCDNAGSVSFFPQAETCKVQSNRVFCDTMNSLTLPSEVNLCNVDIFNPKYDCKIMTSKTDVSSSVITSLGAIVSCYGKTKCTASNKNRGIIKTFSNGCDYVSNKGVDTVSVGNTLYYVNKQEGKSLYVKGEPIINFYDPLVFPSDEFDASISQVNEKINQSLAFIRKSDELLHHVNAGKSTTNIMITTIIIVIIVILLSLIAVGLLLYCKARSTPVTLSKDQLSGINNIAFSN
With B1 the “IC50/nM, plaque reduction, RSV A long on HEp-2 cells (Table 2, Cell fusion inhibition activity)” value was 19.3 nM.
With B2 the “IC50/nM, plaque reduction, RSV A long on HEp-2 cells (Table 2, Cell fusion inhibition activity)” value was 28.7 nM.
For B3, the “IC50/nM, plaque reduction, RSV A long on HEp-2 cells (Table 2, Cell fusion inhibition activity)” value was 11.8 nM.
For B4, the “IC50/nM, plaque reduction, RSV A long on HEp-2 cells (Table 2, Cell fusion inhibition activity)” value was 12.4 nM.
B5 was tested, and the “IC50/nM, plaque reduction, RSV A long on HEp-2 cells (Table 2, Cell fusion inhibition activity)” value was 25.7 nM.
In the case of B6, the “IC50/nM, plaque reduction, RSV A long on HEp-2 cells (Table 2, Cell fusion inhibition activity)” value is reported as 14.8 nM.
For B7, the “IC50/nM, plaque reduction, RSV A long on HEp-2 cells (Table 2, Cell fusion inhibition activity)” value was 14.6 nM.
In the case of B8, the “IC50/nM, plaque reduction, RSV A long on HEp-2 cells (Table 2, Cell fusion inhibition activity)” value is reported as 11.7 nM.
With B9 the “IC50/nM, plaque reduction, RSV A long on HEp-2 cells (Table 2, Cell fusion inhibition activity)” value was 12.8 nM.
B10 was tested, and the “IC50/nM, plaque reduction, RSV A long on HEp-2 cells (Table 2, Cell fusion inhibition activity)” value was 19.8 nM.
With B11 the “IC50/nM, plaque reduction, RSV A long on HEp-2 cells (Table 2, Cell fusion inhibition activity)” value was 14.9 nM.
B12 was tested, and the “IC50/nM, plaque reduction, RSV A long on HEp-2 cells (Table 2, Cell fusion inhibition activity)” value was 11.3 nM.
B13 was tested, and the “IC50/nM, plaque reduction, RSV A long on HEp-2 cells (Table 2, Cell fusion inhibition activity)” value was 18.3 nM.
In the case of B14, the “IC50/nM, plaque reduction, RSV A long on HEp-2 cells (Table 2, Cell fusion inhibition activity)” value is reported as 14.6 nM.
